This passage reports Kd results from publication PMC3999168.

One may read the Kd as the concentration at which binding is half-saturated.

The test system of the data set is LL-37 (native) (human). In words: EMSA. As to conditions: EMSA with 5' 6-FAM PCR products, as previously published; buffer, salt, pH and temperature not in the material. (In EMSA bound probe runs differently from free probe, usually more slowly.)
As to algT (algU) fragment, the dissociation constant Kd turned out to be 12.8 µM.

As for lecB fragment, the Kd is 12.8 µM.

mucA fragment: the dissociation constant (Kd) amounted to 12.8 µM.
